Test [1] deals with tubulin (sheep brain) (sheep). In words: co-sedimentation; 20 μM tubulin polymerised with 5 μM YB-1 in buffer M with 10% glycerol at 37°C to steady state, microtubules pelleted at 300 000 × g; SDS-PAGE, visual estimation on Coomassie stained gels. The note with it: scale: mole of YB-1 per mole of tubulin heterodimer.
The target in test [2] is tubulin (sheep brain) (sheep). The experiment in a line: co-sedimentation; 20 μM tubulin polymerised with 10 μM YB-1 in buffer M with 10% glycerol at 37°C to steady state, microtubules pelleted at 300 000 × g; SDS-PAGE, visual estimation on Coomassie stained gels. The note with it: scale: mole of YB-1 per mole of tubulin heterodimer.

YB-1, sequence (Q28618 whole entry): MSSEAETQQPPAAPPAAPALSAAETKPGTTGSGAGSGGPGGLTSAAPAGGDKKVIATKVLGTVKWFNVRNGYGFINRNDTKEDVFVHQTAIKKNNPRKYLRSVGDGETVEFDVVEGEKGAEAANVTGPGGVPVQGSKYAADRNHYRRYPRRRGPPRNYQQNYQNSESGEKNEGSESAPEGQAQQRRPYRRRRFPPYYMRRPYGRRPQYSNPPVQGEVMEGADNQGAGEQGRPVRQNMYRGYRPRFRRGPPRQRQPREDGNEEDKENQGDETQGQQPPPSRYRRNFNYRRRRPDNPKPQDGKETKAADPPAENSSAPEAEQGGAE

As usually defined, the stoichiometry N is the number of molecules, sites or subunits per partner or assembly. “YB-1 (from UniProt Q28618 1-324) (natural protein)”: the stoichiometry N is 0.33 in test [1] and 0.5 in test [2].

The values are drawn from publication PMC2557009.
